Reference: patent US20170283834A1, “Processes for Producing A Fermentation Product Using A Fermenting Organism” (Novozymes A/S, priority 2014, published 2017)

Tested on: zein
Experiment: Relative activity assay of protease variants (zein micro titer plate)
Assay type: biochemical
Conditions: for Relative activity 80° C./70° C. / Relative activity 75° C./70° C.: Table 5, upper part
Description: Each well contains 200 microL of 0.05-0.1% of zein (Sigma), 0.25 mM ZnSO4 and 1% of agar in 20 mM sodium acetate buffer, pH 4.5.
Yeast clones on SC-glucose were inoculated to a well of a 96-well micro titre plate containing YPD+Zn medium and cultivated at 28° C. for 3 days. The culture supernatants were applied to a 96-well zein micro titer plate and incubated at at least 2 temperatures (ex. 60° C. and 65° C., 70° C. and 75° C., 70° C. and 80° C.) for more than 4 hours or overnight. The turbidity of zein in the plate was measured as A630 and the relative activity (higher/lower temperatures) was determined as an indicator of thermoactivity improvement. The clones with higher relative activity than the parental variant were selected and the sequence was determined.

B1: JTP072: protease variant of SEQ ID NO: 3: N26R/D79L/S87P (protein, listed as Thermoascus aurantiacus)
chain: MRLVASLTALVALSVPVFPAAVNVKRASSYLEITLSQVSNTLIKAVVQNTGSDELSFVHLNFFKDPAPVKKVSVYRDGSEVQFEGILSRYKSTGLSRDAFTYLAPGESVEDVFDIASTYDLTSGGPVTIRTEGVVPYATANSTDIAGYISYSSNVLTIDVDGAAAATVSKAITPLDRRTRISSCSGSRQSALTTALRNAASLARAAADAAQSGSASKFSEYFKTTSSSTRQTVAARLRAVAREASSSSSGATTYYCLDPYGYCSPNVLAYTLPSYNIIANCDIFYTYLPALTSTCHAQDQATTALHEFTHAPGVYSPGTDDLAYGYQAAMGLSSSQAVMNADTYALYANAIYLGC
Table 3
  Relative activity 75° C./65° C.: 92%

B2: JTP088: protease variant of SEQ ID NO: 3: Y43F/D79L/S87P/A112P/D142L (protein, listed as Thermoascus aurantiacus)
chain: MRLVASLTALVALSVPVFPAAVNVKRASSYLEITLSQVSNTLIKAVVQNTGSDELSFVHLNFFKDPAPVKKVSVYRDGSEVQFEGILSRYKSTGLSRDAFTYLAPGESVEDVFDIASTYDLTSGGPVTIRTEGVVPYATANSTDIAGYISYSSNVLTIDVDGAAAATVSKAITPLDRRTRISSCSGSRQSALTTALRNAASLANAAADAAQSGSASKFSEFFKTTSSSTRQTVAARLRAVAREASSSSSGATTYYCLDPYGYCSPNVLAYTLPSYNIIANCDIFYTYLPPLTSTCHAQDQATTALHEFTHAPGVYSPGTLDLAYGYQAAMGLSSSQAVMNADTYALYANAIYLGC
Table 4
  Relative activity 75° C./65° C.: 119%

B3: JTP079: protease variant of SEQ ID NO: 3: A27G/D79L/S87P/A112P/D142L (protein, listed as Thermoascus aurantiacus)
chain: MRLVASLTALVALSVPVFPAAVNVKRASSYLEITLSQVSNTLIKAVVQNTGSDELSFVHLNFFKDPAPVKKVSVYRDGSEVQFEGILSRYKSTGLSRDAFTYLAPGESVEDVFDIASTYDLTSGGPVTIRTEGVVPYATANSTDIAGYISYSSNVLTIDVDGAAAATVSKAITPLDRRTRISSCSGSRQSALTTALRNAASLANGAADAAQSGSASKFSEYFKTTSSSTRQTVAARLRAVAREASSSSSGATTYYCLDPYGYCSPNVLAYTLPSYNIIANCDIFYTYLPPLTSTCHAQDQATTALHEFTHAPGVYSPGTLDLAYGYQAAMGLSSSQAVMNADTYALYANAIYLGC
Table 3
  Relative activity 75° C./65° C.: 104%

B4: JTP136: protease variant of SEQ ID NO: 3: D79L Y82F S87P A112P A126V D142L (protein, listed as Thermoascus aurantiacus)
chain: MRLVASLTALVALSVPVFPAAVNVKRASSYLEITLSQVSNTLIKAVVQNTGSDELSFVHLNFFKDPAPVKKVSVYRDGSEVQFEGILSRYKSTGLSRDAFTYLAPGESVEDVFDIASTYDLTSGGPVTIRTEGVVPYATANSTDIAGYISYSSNVLTIDVDGAAAATVSKAITPLDRRTRISSCSGSRQSALTTALRNAASLANAAADAAQSGSASKFSEYFKTTSSSTRQTVAARLRAVAREASSSSSGATTYYCLDPFGYCSPNVLAYTLPSYNIIANCDIFYTYLPPLTSTCHAQDQATTVLHEFTHAPGVYSPGTLDLAYGYQAAMGLSSSQAVMNADTYALYANAIYLGC
  Relative activity 80° C./70° C.: 59%

B5: JTP140: protease variant of SEQ ID NO: 3: D79L S87P N98C A112P G135C D142L (protein, listed as Thermoascus aurantiacus)
chain: MRLVASLTALVALSVPVFPAAVNVKRASSYLEITLSQVSNTLIKAVVQNTGSDELSFVHLNFFKDPAPVKKVSVYRDGSEVQFEGILSRYKSTGLSRDAFTYLAPGESVEDVFDIASTYDLTSGGPVTIRTEGVVPYATANSTDIAGYISYSSNVLTIDVDGAAAATVSKAITPLDRRTRISSCSGSRQSALTTALRNAASLANAAADAAQSGSASKFSEYFKTTSSSTRQTVAARLRAVAREASSSSSGATTYYCLDPYGYCSPNVLAYTLPSYCIIANCDIFYTYLPPLTSTCHAQDQATTALHEFTHAPCVYSPGTLDLAYGYQAAMGLSSSQAVMNADTYALYANAIYLGC
  Relative activity 75° C./70° C.: 81%

B6: JTP135: protease variant of SEQ ID NO: 3: S38T D79L S87P A112P A126V D142L (protein, listed as Thermoascus aurantiacus)
chain: MRLVASLTALVALSVPVFPAAVNVKRASSYLEITLSQVSNTLIKAVVQNTGSDELSFVHLNFFKDPAPVKKVSVYRDGSEVQFEGILSRYKSTGLSRDAFTYLAPGESVEDVFDIASTYDLTSGGPVTIRTEGVVPYATANSTDIAGYISYSSNVLTIDVDGAAAATVSKAITPLDRRTRISSCSGSRQSALTTALRNAASLANAAADAAQSGSATKFSEYFKTTSSSTRQTVAARLRAVAREASSSSSGATTYYCLDPYGYCSPNVLAYTLPSYNIIANCDIFYTYLPPLTSTCHAQDQATTVLHEFTHAPGVYSPGTLDLAYGYQAAMGLSSSQAVMNADTYALYANAIYLGC
  Relative activity 80° C./70° C.: 62%

B7: JTP141: protease variant of SEQ ID NO: 3: D79L S87P A112P D142L T141C M161C (protein, listed as Thermoascus aurantiacus)
chain: MRLVASLTALVALSVPVFPAAVNVKRASSYLEITLSQVSNTLIKAVVQNTGSDELSFVHLNFFKDPAPVKKVSVYRDGSEVQFEGILSRYKSTGLSRDAFTYLAPGESVEDVFDIASTYDLTSGGPVTIRTEGVVPYATANSTDIAGYISYSSNVLTIDVDGAAAATVSKAITPLDRRTRISSCSGSRQSALTTALRNAASLANAAADAAQSGSASKFSEYFKTTSSSTRQTVAARLRAVAREASSSSSGATTYYCLDPYGYCSPNVLAYTLPSYNIIANCDIFYTYLPPLTSTCHAQDQATTALHEFTHAPGVYSPGCLDLAYGYQAAMGLSSSQAVCNADTYALYANAIYLGC
  Relative activity 75° C./70° C.: 68%

B8: JTP143: protease variant of SEQ ID NO: 3: S36P D79L S87P A112P D142L (protein, listed as Thermoascus aurantiacus)
chain: MRLVASLTALVALSVPVFPAAVNVKRASSYLEITLSQVSNTLIKAVVQNTGSDELSFVHLNFFKDPAPVKKVSVYRDGSEVQFEGILSRYKSTGLSRDAFTYLAPGESVEDVFDIASTYDLTSGGPVTIRTEGVVPYATANSTDIAGYISYSSNVLTIDVDGAAAATVSKAITPLDRRTRISSCSGSRQSALTTALRNAASLANAAADAAQSGPASKFSEYFKTTSSSTRQTVAARLRAVAREASSSSSGATTYYCLDPYGYCSPNVLAYTLPSYNIIANCDIFYTYLPPLTSTCHAQDQATTALHEFTHAPGVYSPGTLDLAYGYQAAMGLSSSQAVMNADTYALYANAIYLGC
  Relative activity 75° C./70° C.: 69%

B9: JTP078: protease variant of SEQ ID NO: 3: A27V/D79L/S87P/A112P/D142L (protein, listed as Thermoascus aurantiacus)
chain: MRLVASLTALVALSVPVFPAAVNVKRASSYLEITLSQVSNTLIKAVVQNTGSDELSFVHLNFFKDPAPVKKVSVYRDGSEVQFEGILSRYKSTGLSRDAFTYLAPGESVEDVFDIASTYDLTSGGPVTIRTEGVVPYATANSTDIAGYISYSSNVLTIDVDGAAAATVSKAITPLDRRTRISSCSGSRQSALTTALRNAASLANVAADAAQSGSASKFSEYFKTTSSSTRQTVAARLRAVAREASSSSSGATTYYCLDPYGYCSPNVLAYTLPSYNIIANCDIFYTYLPPLTSTCHAQDQATTALHEFTHAPGVYSPGTLDLAYGYQAAMGLSSSQAVMNADTYALYANAIYLGC
Table 3
  Relative activity 75° C./65° C.: 100%

B10: JTP083: protease variant of SEQ ID NO: 3: T46R/D79L/S87P/A112P/D142L (protein, listed as Thermoascus aurantiacus)
chain: MRLVASLTALVALSVPVFPAAVNVKRASSYLEITLSQVSNTLIKAVVQNTGSDELSFVHLNFFKDPAPVKKVSVYRDGSEVQFEGILSRYKSTGLSRDAFTYLAPGESVEDVFDIASTYDLTSGGPVTIRTEGVVPYATANSTDIAGYISYSSNVLTIDVDGAAAATVSKAITPLDRRTRISSCSGSRQSALTTALRNAASLANAAADAAQSGSASKFSEYFKRTSSSTRQTVAARLRAVAREASSSSSGATTYYCLDPYGYCSPNVLAYTLPSYNIIANCDIFYTYLPPLTSTCHAQDQATTALHEFTHAPGVYSPGTLDLAYGYQAAMGLSSSQAVMNADTYALYANAIYLGC
Table 4
  Relative activity 75° C./65° C.: 126%

B11: JTP137: protease variant of SEQ ID NO: 3: A27K D79L S87P A112P A126V D142L (protein, listed as Thermoascus aurantiacus)
chain: MRLVASLTALVALSVPVFPAAVNVKRASSYLEITLSQVSNTLIKAVVQNTGSDELSFVHLNFFKDPAPVKKVSVYRDGSEVQFEGILSRYKSTGLSRDAFTYLAPGESVEDVFDIASTYDLTSGGPVTIRTEGVVPYATANSTDIAGYISYSSNVLTIDVDGAAAATVSKAITPLDRRTRISSCSGSRQSALTTALRNAASLANKAADAAQSGSASKFSEYFKTTSSSTRQTVAARLRAVAREASSSSSGATTYYCLDPYGYCSPNVLAYTLPSYNIIANCDIFYTYLPPLTSTCHAQDQATTVLHEFTHAPGVYSPGTLDLAYGYQAAMGLSSSQAVMNADTYALYANAIYLGC
  Relative activity 80° C./70° C.: 54%

B12: JTP090: protease variant of SEQ ID NO: 3: D79L/S87P/A112P/T124L/D142L (protein, listed as Thermoascus aurantiacus)
chain: MRLVASLTALVALSVPVFPAAVNVKRASSYLEITLSQVSNTLIKAVVQNTGSDELSFVHLNFFKDPAPVKKVSVYRDGSEVQFEGILSRYKSTGLSRDAFTYLAPGESVEDVFDIASTYDLTSGGPVTIRTEGVVPYATANSTDIAGYISYSSNVLTIDVDGAAAATVSKAITPLDRRTRISSCSGSRQSALTTALRNAASLANAAADAAQSGSASKFSEYFKTTSSSTRQTVAARLRAVAREASSSSSGATTYYCLDPYGYCSPNVLAYTLPSYNIIANCDIFYTYLPPLTSTCHAQDQALTALHEFTHAPGVYSPGTLDLAYGYQAAMGLSSSQAVMNADTYALYANAIYLGC
Table 4
  Relative activity 75° C./65° C.: 141%
